Source: patent US20140050727A1 (MOCHIDA PHARMACEUTICAL, published 2014)

T1: Elastase, Human Neutrophil (human, UniProt P08246 30-247, limits assumed)
T1 sequence (looked up): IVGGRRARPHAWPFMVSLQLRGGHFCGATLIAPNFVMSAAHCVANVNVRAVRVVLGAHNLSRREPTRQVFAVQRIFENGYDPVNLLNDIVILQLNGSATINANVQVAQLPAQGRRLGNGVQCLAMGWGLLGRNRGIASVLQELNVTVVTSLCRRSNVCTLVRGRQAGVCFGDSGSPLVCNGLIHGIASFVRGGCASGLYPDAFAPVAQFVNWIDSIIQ

T2: human CD14 (human, UniProt P08571 20-375, limits assumed)
T2 sequence (looked up): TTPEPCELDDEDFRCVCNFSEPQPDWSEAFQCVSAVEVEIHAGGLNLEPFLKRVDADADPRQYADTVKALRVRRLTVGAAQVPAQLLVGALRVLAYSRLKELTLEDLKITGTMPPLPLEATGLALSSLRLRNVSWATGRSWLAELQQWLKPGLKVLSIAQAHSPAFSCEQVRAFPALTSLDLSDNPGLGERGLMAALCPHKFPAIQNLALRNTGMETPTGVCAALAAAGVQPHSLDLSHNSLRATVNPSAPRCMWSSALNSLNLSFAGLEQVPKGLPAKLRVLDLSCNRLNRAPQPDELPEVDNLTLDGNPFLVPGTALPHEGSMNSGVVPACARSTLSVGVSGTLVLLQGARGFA

T3: amino acid-substituted soluble human CD14 P294/296A (human, UniProt P08571 20-345)
T3 construct: mature; Expressed in COS-1, purified on a 3C10 column
T3 sequence (looked up): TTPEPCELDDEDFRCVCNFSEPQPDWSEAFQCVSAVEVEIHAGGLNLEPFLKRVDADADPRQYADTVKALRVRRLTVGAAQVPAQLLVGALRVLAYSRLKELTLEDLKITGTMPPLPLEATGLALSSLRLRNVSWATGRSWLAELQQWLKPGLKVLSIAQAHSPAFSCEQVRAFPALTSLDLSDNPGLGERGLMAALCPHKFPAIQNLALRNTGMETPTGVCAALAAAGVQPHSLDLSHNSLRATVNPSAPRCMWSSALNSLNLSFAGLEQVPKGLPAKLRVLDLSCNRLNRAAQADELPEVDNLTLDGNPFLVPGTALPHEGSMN

T4: amino acid-substituted soluble human CD14 Q295A (human, UniProt P08571 20-345)
T4 construct: mature; Expressed in COS-1, purified on a 3C10 column
T4 sequence (looked up): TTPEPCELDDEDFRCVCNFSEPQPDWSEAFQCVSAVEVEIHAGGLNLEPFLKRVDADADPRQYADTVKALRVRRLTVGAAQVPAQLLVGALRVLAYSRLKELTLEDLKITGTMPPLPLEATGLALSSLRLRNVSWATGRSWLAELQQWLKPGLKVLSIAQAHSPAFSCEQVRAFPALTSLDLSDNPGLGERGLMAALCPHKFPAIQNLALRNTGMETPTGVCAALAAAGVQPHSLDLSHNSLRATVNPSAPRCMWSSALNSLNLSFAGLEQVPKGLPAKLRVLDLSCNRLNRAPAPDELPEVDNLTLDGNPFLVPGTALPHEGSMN

T5: amino acid-substituted soluble human CD14 P294H (human, UniProt P08571 20-345)
T5 construct: mature; Expressed in COS-1, purified on a 3C10 column
T5 sequence (looked up): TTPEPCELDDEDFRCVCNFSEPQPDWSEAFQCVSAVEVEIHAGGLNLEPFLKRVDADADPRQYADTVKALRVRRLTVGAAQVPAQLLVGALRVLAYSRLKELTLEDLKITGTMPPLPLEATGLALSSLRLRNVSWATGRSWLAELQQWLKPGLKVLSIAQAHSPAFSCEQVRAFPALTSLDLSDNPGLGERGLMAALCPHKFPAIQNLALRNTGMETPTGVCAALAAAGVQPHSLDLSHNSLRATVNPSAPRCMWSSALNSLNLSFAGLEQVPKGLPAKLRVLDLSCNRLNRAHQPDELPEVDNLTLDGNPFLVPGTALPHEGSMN

B1: F1024S-D2(3) (antibody)
heavy: QIQLVQSGPELKKPGESVKISCKASGYTFTDYAMNWVKQAPGNGLKWMGWINTQTGKPTYADDFKQRFVFSLETSASTAYLQINNLNIEDTATYFCTRSTFYYSSYIYGWYFDFWGPGTMVTVSSASTKGPSVFPLAPCSRSTSESTAALGCLVKDYFPEPVTVSWNSGALTSGVHTFPAVLQSSGLYSLSSVVTVPSSSLGTKTYTCNVDHKPSNTKVDKRVESKYGPPGPSGPAPEFLGGPSVFLFPPKPKDTLMISRTPEVTCVVVDVSQEDPEVQFNWYVDGVEVHNAKTKPREEQFNSTYRVVSVLTVLHQDWLNGKEYKCKVSNKGLPSSIEKTISKAKGQPREPQVYTLPPSQEEMTKNQVSLTCLVKGFYPSDIAVEWESNGQPENNYKTTPPVLDSDGSFFLYSRLTVDKSRWQEGNVFSCSVMHEALHNHYTQKSLSLSLGKGSTVAACNLPIVSGPCRAFIKLWAFDAVKGKCVLFPYGGCQGNGNKFDSEKECREYCGVPGDGDEELLRFSN
light: DIVMTQSPTSISISVGERVTMNCKASQNVGSNVDWYQQKTGQSPKLLIYKASNRYTGVPDRFTGSGSGTDFTFTISNMQAVDLAVYYCMQSNTNPPWTFGGGTKLELKRTVAAPSVFIFPPSDEQLKSGTASVVCLLNNFYPREAKVQWKVDNALQSGNSQESVTEQDSKDSTYSLSSTLTLSKADYEKHKVYACEVTHQGLSSPVTKSFNRGEC
B2: F1024 antibody (antibody, V domains shown)
VH: QIQLVQSGPELKKPGESVKISCKASGYTFTDYAMNWVKQAPGNGLKWMGWINTQTGKPTYADDFKQRFVFSLETSASTAYLQINNLNIEDTATYFCTRSTFYYSSYIYGWYFDFWGPGTSVTVSS
VL: DIVMTQSPTSISISVGERVTMNCKASQNVGSNVDWYQQKTGQSPKLLIYKASNRYTGVPDRFTGSGSGTDFTFTISNMQAVDLAVYYCMQSNTNPPWTFGGGTKLELKRT
notes: also called antibody F1024; F1024-1-3 rat antibody

Experiments:
[1] = target: T1, Elastase, Human Neutrophil; experiment: cell-based or functional assay
human CD14 = target: T2, human CD14; experiment: cell-based or functional assay
[2] = target: T3, amino acid-substituted soluble human …; experiment: competitive EIA on immobilized 356(CHO) with HRP-labeled F1024 antibody
Description: (§1) A competitive experiment was conducted by the following procedure to confirm the reactivity of each soluble human amino acid-substituted CD14 with the F1024 antibody. […] After allowing to stand overnight at 4° C. and washing 3 times with the PBS containing 0.05% Tween 20, 200 μL/well of PBS⁻ containing 2% StabilGuard (SurModics, Inc.) was added to the well, and the solution was incubated at 37° C. for 30 minutes and stored at 4° C. In the meanwhile, amino acid-substituted soluble human CD14 that had been purified in Example 6-3) was diluted to 2 to 0.02 μg/mL with PBS⁻ containing 0.1% BSA. HRP-labeled F1024 antibody was diluted to 2 μg/mL with PBS⁻ containing 0.1% BSA, and the diluted HRP-labeled F1024 antibody was mixed with an equal amount of the human amino acid-substituted CD14 (25 μL+25 μL). Next, the solution was discarded from the wells of the plate having the soluble CD14 immobilized, and 50 μL/well of a mixed solution of amino acid-substituted CD14 and HRP-labeled F1024 was added. After the incubation at 37° C. for 2 hours, the plate was washed 5 times with PBS⁻ containing 0.05% Tween 20, and 50 μL/well of TMB solution (BioFX) was added to the well as the chromogenic substrate. The reaction was allowed to proceed at room temperature for 5 minutes, the reaction was terminated by adding 50 μL/well of 1M hydrochloric acid solution. Absorbance at 450 nm was measured with a plate spectrophotometer.

[3] = target: T4, amino acid-substituted soluble human …; experiment: as above
Description: as §1

[4] = target: T5, amino acid-substituted soluble human …; experiment: as above
Description: as §1

50% inhibitory concentration (elastase inhibitory activity) [1] [µg/mL] | IC50 for inhibition of LPS-induced E-Selectin expression in HUVEC (human CD14) [µg/mL] | IC50 for inhibition of LPS-induced IL-6 production in HUVEC (human CD14) [µg/mL] | IC50 for inhibition of LPS-induced TNF-α production in human peripheral blood mononuclear cells (human CD14) [µg/mL] | IC50 for inhibition of LPS-induced procoagulant activity (PCA) in human peripheral blood mononuclear cells (human CD14) [µg/mL] | binding result [2] | binding result [3] | binding result [4] | Binder
8.9 | 0.43 | 0.38 | 0.58 | 20.9 |  |  |  | B1
 |  |  |  |  | no binding (tested: 2 to 0.02 µg/mL) | no binding (tested: 2 to 0.02 µg/mL) | no binding (tested: 2 to 0.02 µg/mL) | B2
